Source: patent publication US7211395 (dated 2007)

What was measured:
pig serum albumin [1] = target: T1, pig serum albumin (pig, UniProt P08835); assay: FP, PBS pH 7.4
T1 chain: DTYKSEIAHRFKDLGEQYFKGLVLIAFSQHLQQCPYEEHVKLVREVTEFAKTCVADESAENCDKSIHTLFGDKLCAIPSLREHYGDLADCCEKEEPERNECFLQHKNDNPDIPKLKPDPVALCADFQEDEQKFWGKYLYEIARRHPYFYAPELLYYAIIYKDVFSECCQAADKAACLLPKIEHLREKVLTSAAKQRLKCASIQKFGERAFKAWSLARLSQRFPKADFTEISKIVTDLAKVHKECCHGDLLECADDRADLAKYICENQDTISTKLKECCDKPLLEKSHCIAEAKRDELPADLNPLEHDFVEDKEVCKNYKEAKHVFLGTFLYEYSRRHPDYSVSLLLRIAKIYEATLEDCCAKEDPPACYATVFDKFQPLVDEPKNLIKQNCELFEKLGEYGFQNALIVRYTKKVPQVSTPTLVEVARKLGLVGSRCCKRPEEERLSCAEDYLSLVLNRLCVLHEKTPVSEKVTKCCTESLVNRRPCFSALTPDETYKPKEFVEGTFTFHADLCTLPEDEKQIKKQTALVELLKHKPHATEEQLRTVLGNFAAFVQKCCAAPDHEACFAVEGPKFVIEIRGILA

rabbit serum albumin = target: T2, rabbit serum albumin (rabbit, UniProt P49065); assay: FP, PBS pH 7.4
T2 chain: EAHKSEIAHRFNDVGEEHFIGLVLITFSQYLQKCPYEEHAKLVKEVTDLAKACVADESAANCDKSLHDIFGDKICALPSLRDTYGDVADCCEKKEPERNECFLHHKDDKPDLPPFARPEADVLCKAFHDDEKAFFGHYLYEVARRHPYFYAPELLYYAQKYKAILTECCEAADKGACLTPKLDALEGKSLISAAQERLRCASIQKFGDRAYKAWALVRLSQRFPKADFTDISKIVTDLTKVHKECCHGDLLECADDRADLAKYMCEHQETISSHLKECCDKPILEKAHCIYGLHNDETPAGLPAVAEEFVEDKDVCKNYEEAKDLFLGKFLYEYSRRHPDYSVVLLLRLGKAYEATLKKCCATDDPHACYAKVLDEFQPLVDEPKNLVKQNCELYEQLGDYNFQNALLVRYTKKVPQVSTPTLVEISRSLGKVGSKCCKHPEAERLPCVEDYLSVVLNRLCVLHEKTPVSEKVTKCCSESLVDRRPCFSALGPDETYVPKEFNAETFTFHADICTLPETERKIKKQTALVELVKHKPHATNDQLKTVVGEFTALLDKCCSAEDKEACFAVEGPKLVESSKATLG

mouse serum albumin = mouse serum albumin (mouse, UniProt P07724); assay: FP, PBS pH 7.4
[2] = target: T3, human serum albumin (HSA) (human, UniProt P02768); assay: FP, pH 6.2, no NaCl
bovine serum albumin = bovine serum albumin (bovine, UniProt P02769); assay: FP, PBS pH 7.4
chicken ovalbumin [3] = target: T4, chicken ovalbumin (chicken, UniProt P01012); assay: FP, PBS pH 7.4
T4 chain: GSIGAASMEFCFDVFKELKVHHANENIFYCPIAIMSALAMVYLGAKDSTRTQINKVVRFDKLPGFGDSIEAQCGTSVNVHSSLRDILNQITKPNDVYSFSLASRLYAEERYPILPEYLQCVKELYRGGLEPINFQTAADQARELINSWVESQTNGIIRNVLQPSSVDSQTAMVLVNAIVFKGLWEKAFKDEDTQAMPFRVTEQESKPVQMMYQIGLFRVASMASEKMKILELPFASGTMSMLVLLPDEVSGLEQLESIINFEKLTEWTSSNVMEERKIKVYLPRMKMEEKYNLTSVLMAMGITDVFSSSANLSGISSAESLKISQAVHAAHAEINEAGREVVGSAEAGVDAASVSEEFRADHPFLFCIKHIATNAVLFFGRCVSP

chicken ovalbumin [4] = target: T4, chicken ovalbumin; assay: FP, pH 6.2, no NaCl
[5] = target: T3, human serum albumin (HSA); assay: FP, pH 7.4, 0.14 M NaCl
pig serum albumin [6] = target: T1, pig serum albumin; assay: FP, pH 6.2, no NaCl
[7] = target: T3, human serum albumin (HSA); assay: FP, pH 6.2, no NaCl; remark: listed apart in the source
[8] = target: T3, human serum albumin (HSA); assay: FP, PBS pH 7.4
rhesus serum albumin = target: T5, rhesus serum albumin (rhesus macaque, UniProt Q28522); assay: FP, PBS pH 7.4
T5 chain: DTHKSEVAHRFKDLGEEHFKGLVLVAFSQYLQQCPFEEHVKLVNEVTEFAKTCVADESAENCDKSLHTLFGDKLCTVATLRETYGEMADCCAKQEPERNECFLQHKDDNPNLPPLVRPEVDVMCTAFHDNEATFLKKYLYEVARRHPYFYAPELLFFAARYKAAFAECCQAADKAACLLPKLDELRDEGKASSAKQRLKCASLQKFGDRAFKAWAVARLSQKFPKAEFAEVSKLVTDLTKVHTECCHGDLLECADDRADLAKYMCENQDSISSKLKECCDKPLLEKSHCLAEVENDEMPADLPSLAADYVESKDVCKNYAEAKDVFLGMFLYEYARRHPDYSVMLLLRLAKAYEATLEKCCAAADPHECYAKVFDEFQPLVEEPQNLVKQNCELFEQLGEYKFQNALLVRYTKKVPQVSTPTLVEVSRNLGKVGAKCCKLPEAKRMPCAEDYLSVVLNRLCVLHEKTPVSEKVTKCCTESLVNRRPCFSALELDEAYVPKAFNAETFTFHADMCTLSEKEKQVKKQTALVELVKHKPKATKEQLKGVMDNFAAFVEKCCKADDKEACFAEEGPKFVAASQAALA

Sequence of bovine serum albumin (P02769 25-607): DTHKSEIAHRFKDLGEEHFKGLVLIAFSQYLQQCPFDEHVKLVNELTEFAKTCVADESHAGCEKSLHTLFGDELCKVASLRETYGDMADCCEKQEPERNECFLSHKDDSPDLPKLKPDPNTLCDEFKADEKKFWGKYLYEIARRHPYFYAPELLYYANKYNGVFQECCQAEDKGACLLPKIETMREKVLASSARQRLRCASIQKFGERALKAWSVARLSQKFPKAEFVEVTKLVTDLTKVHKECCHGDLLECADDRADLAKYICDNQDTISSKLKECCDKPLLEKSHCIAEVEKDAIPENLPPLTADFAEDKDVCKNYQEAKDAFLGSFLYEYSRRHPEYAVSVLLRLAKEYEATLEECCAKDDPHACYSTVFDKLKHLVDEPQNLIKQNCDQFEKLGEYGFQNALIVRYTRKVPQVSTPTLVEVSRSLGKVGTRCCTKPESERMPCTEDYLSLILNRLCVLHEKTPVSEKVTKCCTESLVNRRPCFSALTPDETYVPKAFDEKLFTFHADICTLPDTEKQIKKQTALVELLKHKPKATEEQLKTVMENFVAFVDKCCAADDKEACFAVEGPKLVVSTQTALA
Sequence of mouse serum albumin (P07724 25-608): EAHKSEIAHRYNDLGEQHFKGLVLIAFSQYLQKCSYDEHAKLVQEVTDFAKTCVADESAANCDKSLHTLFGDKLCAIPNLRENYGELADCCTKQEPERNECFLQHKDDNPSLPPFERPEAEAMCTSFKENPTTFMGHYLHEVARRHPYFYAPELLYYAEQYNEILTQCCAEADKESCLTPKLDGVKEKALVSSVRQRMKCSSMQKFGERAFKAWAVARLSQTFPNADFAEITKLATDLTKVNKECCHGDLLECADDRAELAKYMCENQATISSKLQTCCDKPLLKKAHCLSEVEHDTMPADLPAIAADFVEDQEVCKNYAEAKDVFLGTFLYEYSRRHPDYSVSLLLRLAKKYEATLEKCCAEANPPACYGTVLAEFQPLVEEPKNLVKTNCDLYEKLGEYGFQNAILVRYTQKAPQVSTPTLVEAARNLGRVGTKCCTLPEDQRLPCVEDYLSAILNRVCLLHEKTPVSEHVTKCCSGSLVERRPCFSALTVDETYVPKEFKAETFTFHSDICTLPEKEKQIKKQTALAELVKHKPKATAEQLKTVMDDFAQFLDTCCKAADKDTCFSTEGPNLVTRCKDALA

B1: DX-321 (peptide)
chain: AEGTGDRNMCKFSWIRSPAFCARADPEXK
modifications: disulfide cyclic, N-acetyl, C-amide, X = 6-aminohexanoic acid, fluorescein on Lys
Kd (pig serum albumin [1]): > 200 µM | Kd (rabbit serum albumin): > 200 µM | Kd (mouse serum albumin): > 200 µM | Kd [2]: 0.9 µM | Kd (bovine serum albumin): > 200 µM | Kd (chicken ovalbumin [3]): > 200 µM | Kd (chicken ovalbumin [4]): > 200 µM | Kd [5]: 84 µM | Kd (pig serum albumin [6]): 21 µM | Kd [7]: 0.9 µM | Kd [8]: 84 µM | Kd (rhesus serum albumin): 82 µM
